Data on 21 sequences can be found in the DeepSol protein solubility set.

This data set is described as follows: soluble on expression in E. coli; label from the status in PepcDB or PDB records.
Regarding “MSLYKIITSDLDETLLRQDGSISSANVAAIAAASKRGVKFVPNTGRSFLSIQPLLKTLNLYQRPNEYVVSYNGGVVVENQDNRVIVSNEMPYEEAAKAFAIMSEFDVDIHIYTLDHLFIYRPRADDRAYLQTRGVTFTEMTGAFDQFRNAQIMKVIVMNPDVMVRQQVYAAIKAAFTEINCTYSSGIYMEVNHAGVDKGRAILDLGDKLGIKADEIMAIGDNANDLGMLTKVGLPVSVANGIDDVKQVAKFVTPHDYERGVADAIETFILEGHHHHHH”, the “soluble on expression in E. coli” value is given as “soluble”.
In the case of “MSLYKLIALDMDGTLLNDDKIISKRNKEAIKKAKNLGYKVVLSTGRPLKGVERYLKELDLVNDDDYAIAFNGGLVQNTKTGEVLGKELMKFEDLDRLYKLSQKFNVNIHMLSINECITPKKNPYTEVEVNINQIPLIEKNFNELPHDTVIVKIMMIDSKEKLDKVEKLLPKEIYDDYSVARSSDIFLEFSPKGVHKGVGLKILSEHLNLKKEELIAVGDAGNDIAMIEYAGLGVAMGNAFPYVKESADYVTDNNETHGVAKVIEKFMLNEGHHHHHH”, the “soluble on expression in E. coli” value is “soluble”.
As for “MSLYKVLALDLDGTVLSDDHTIHPQVKDAIRAAQQHCHVLIVTGRHHTAARPYYDELGLTTPIICCNGTYVYDYASETVLEHNAIDKQDALTFIDLAQEFQLKLVMYIKDAMTYSQRSPIAYMQALEKWAQAASLTHPPQIYAIDSFHQTARDSEFVWKFVVEGLPSSVERLLEHPWVNAHFNGERSWSNRIDFAAKGNSKGLRLAQYVAQLGYAANHVMAIGDNHNDISMLRYAGHGVAMANADDTVKSYARSLCSTDNNHAGLAQLIREHIQGEGHHHHHH”, the entry is “soluble”; as for “MSLYKVTRGKSEQYLKDERALEDYLIATGLDDCAFKLANGEVRGGRDLLALVEDARAIRSTLHNLHSRYNRSVVEQAAIAGVLSPRITTDIATANEAAAYIARRLDALADEVERGWVGHFTEGEGFRFERTVRGVKEVAAIDDAMLGSADARKLDEYAAVLQEVYPRPGVLRRKEAETAIHGPISLFEAVTDAGRKGVALQRYKGLGEMNPSQLWETTLDTNARSLLQVKVREVDEADDIFTKLMGDVVEPRREFIQENSLHATVDVEGHHHHHH”, “soluble”.
Regarding “MSLYVDAGLQPLDKNNKKLVQVHIPEGSSNKQIAAVLEESNVIKSGMVFNYYVKFKNLTDFQAGYYQMSPSMTLDEIGEMLKEGGTPEPTKIADGKVTIPEGYDIDKIGEAIEKNTDFKKADFIALMKNEDFFNQMKAKYPDLLESAATAEGVRYRLEGYLFPATYDYYKKATLPEFVEQMIAKMNTVMEQYTPTIHAKNLTNQQVLTLASLVEKEGVKEADRKQIAQVFFNRLAADMPIQSDISILYALGEHKETVTYADLEVDSSYNLYKNTGYGPGPLDSPSEESIKAVLNPTPSDYLYFVADISTGKVYFSKTYEEHQVLVDQYVNNSSSEEGHHHHHH”, the “soluble on expression in E. coli” value was “soluble”.
On to “MSMKQAEFIQAKGYQARVTRTARAKTASIKVEEGMVSVVVPKALPIERIERILQEKHQWIIDKIALHKGLITSSEKQFVSGEAMPYLGRNYRLKVHAGSFEPVKLVQGRLVVIVPEGSVRSNLVREALIGWYKRSALLKLREKVRRYAKVIGVTPKSVNIKTFKSRWGSCNPKGDLDFNWIIVMAPNRIVDYVVVHELCHLKQLDHSPLFWKEVERVMPDYAECKEWLKNNAPKLTFLEHHHHHH”, for which the “soluble on expression in E. coli” value is on record as “soluble”.
Turning to “MSNDKSAEVVVLPRENDEESKEPVLKNQFDLSTFDIDSPEIDLTHTRADHIPDLTGFPKIEELRMRNNLLVSISPTISSLVTLTSLDLYENQLTEISHLESLVNLVSLDLSYNRIRQINGLDKLTKLETLYLVSNKIEKIENLEALTQLKLLELGDNRIKKIENIGHLVNLDELFIGKNKIRQLEGVETLQKLSVLSLPGNRIVKIENVEQLNNLKELYLSDQGLQDIHGVEPLTNLLLLDVANNEIKTFSGVERLESLNDFWANDNKVESFSEIEQLSKLKGLQTVYLERNPFYFNDTNQYRRKVMMTLTQVTQIDATTCRKPIE”, the “soluble on expression in E. coli” value is “not soluble”.
In the case of “MSNEVEQKKNIKTINDLPGISQTVINKLIEAGYSSLETLAVASPQDLSVAAGIPLSTAQKIIKEARDALDIRFKTALEVKKERMNVKKISTGSQALDGLLAGGIETRTMTEFFGEFGSGKTQLCHQLSVNVQLPPEKGGLSGKAVYIDTEGTFRWERIENMAKALGLDIDNVMNNIYYIRAINTDHQIAIVDDLQELVSKDPSIKLIVVDSVTSHFRAEYPGRENLAVRQQKLNKHLHQLTRLAEVYDIAVIITNQVMARPDMFYGDPTVAVGGHTLYHVPGIRIQLKKSRGNRRIARVVDAPHLPEGEVVFALTEEGIRDAEE” it was “soluble”.
In the case of “MSNFISPVYEIKSIPIEKISPNDYNPNSVAPPEMKLLYDSIKSDGYTMPIVCYYDKEEDRYSIVDGFHRYRIMLDYSDIYERESGRLPVSVIDKSLDYRMASTIRHNRARGSHDVDLMSQIVKDLHECGRSDNWIAKHLGMDKDEILRLKQITGLASLFKDHEFNQSWEPEELLNE” it was “soluble”; in that of “MSNILIINGAKKFAHSNGQLNDTLTEVADGTLRDLGHDVRIVRADSDYNVKAEVQNFLWADVVIWQMPGWWMGAPWTVKKYIDDVFTEGHGTLYASDGRTRKDPSKKYGSGSLVQDKKYMLSLTWNAPMEAFTEKDQFFHGVGVDGVYLPFHKANQFLGMEPLPTFIANDVIKMPDVPRYTEEYRKHLVEIFG”, “not soluble”; in that of “MSNINIRVAHEQDAEELHSIMQIAFTPLRELGIDWPSVHADLEMVKDNLRQNTTFVLENEKEIISTITVCYSWSSVKPISGYPFVWWFATRPTYDGQGYGSQLLKYAEETFLRDTLKAAAVTLGTSARLHPWLLNIYEKRGYEIYAKHENDDGDLGVIMRKILIPEQFNDDILGRPPF”, “not soluble”.
As to “MSNITIYHNPACGTSRNTLEMIRNSGTEPTIILYLENPPSRDELVKLIADMGISVRALLRKNVEPYEQLGLAEDKFTDDQLIDFMLQHPILINRPIVVTPLGTRLCRPSEVVLDILQDAQKGAFTKEDGEKVVDEAGKRLK”, the “soluble on expression in E. coli” value is “soluble”.
With “MSNKDIRVVVGMSGGVDSSVTAYLLKEQGYDVIGIFMKNWDDTDENGVCTATEDYNDVIAVCNQIGIPYYAVNFEEQYWDKVFTYFLDEYKKGRTPNPDVMCNKEIKFKAFLEHALKLGADYVATGHYARIRRHDDGHVEMLRGVDNNKDQTYFLNQLSQEQLSKVMFPIGDIEKSEVRRIAEEQNLATAKKKDSTGICFIGERNFKEFLSHYLPAQSGEMLTLNGKKMGQHSGLMYYTIGQRHGLGIGGDGDPWFVVGKNLNDNVLYVEQGFHHDALYSDYLIASDYSFVNPSEIDLEKGFECTAKFRYRQKDTKVYVQRENENSIRVTFAEPVRAITPGQAVVFYNQEVCLGGATIDDVYKNEGQLSYVVLEHHHHHH”, the “soluble on expression in E. coli” value was “soluble”.
On to “MSNLDNPGIYYQERFFANDGVPDTGRELIAEYRQLITQFRNFIRDFSTGGFGMIYRDQLKRNYFSHEYRLEINLNHLKNFDEDIEMKLRKFPGKVLPALEEAAKIVADEITTPRPKGEEKLHDIQVTLTLDEYPTSLRQVKSAQVSQVVKISGIIVAAAQVRSKATKVTLQCRQCKHTIPDVSIKPGLEGFALPRTCAAPQQGQMQRCPIDPYIMLPDKCECVDYQTLKLQENPEDVPHGEMPRHLQLFTERYLTDKVVPGNRVTIVGVYSIKKLIQKKGGDKSLQGIRTPYLRVLGIHMETSGPGRTNFTTFTPEEERMFKTLAQRKDAYELIAKSIAPSIYGSADIKKSIACLLFGGARKKLPDGITRRGDINVLLLGDPGTAKSQLLKFVEQVSPIGVYTSGKGSSAAGLTASVIRDPQSRSFIMEGGAMVLADGGVVCIDEFDKMREDDRVAIHEAMEQQTISIAKAGITTTLNSRCSVLAAANSVYGRWDESRGDDNIDFMPTILSRFDMIYIVKDTHDVLKDATLAKHVIEVHVNASAAKERDIAGVPKTATTDSDGVMTMFDTDGFLTIEFLKKFVTYARLNCGPRLTPQASEKLVNHYVKMRNPVVNADAFKSGKKAHNSAIPITVRQLEAIVRIAESIAKMELQQFATDKHVEEALRLFRVSTIEAAATGNLAGVEGFTSTADQEALNRIEVQMKKRFAIGTHVSEHLIVQDFVARQHYRESLVKKVIDNLVRRGDLQQKMQRKMLYRVR”, for which the “soluble on expression in E. coli” value was “not soluble”.
For “MSNLSGTDKSVILLMTIGEDRAAEVFKHLSTREVQALSTAMANVRQISNKQLTDVLSEFEQEAEQFAALNINANEYLRSVLVKALGEERASSLLEDILETRDTTSGIETLNFMEPQSAADLIRDEHPQIIATILVHLKRSQAADILALFDERLRHDVMLRIATFGGVQPAALAELTEVLNGLLDGQNLKRSKMGGVRTAAEIINLMKTQQEEAVITAVREFDGELAQKIIDEMFLFENLVDVDDRSIQRLLQEVDSESLLIALKGAEPPLREKFLRNMSQRAADILRDDLANRGPVRLSQVENEQKAILLIVRRLAETGEMVIGSGEDTYV”, the “soluble on expression in E. coli” value is given as “not soluble”.
“MSNQQALVIFSGGQDSTTCLIQAIQTYGRENVQAITFQYGQRHAVELERARWIAQDLGVKQTVLDLSLMRQITHNALMDDTAAIETAENGVPNTFVDGRNALFLLYAAIYAKGQGIRHIIAGVCETDFSGYPDCRDVFVKSMNVTLNLAMDYDFQIHTPLMYLTKAQTWALADEMGVLDYIREQTHTCYNGIVGGCRECPSCILRERGLAEYLESKKAV”: the “soluble on expression in E. coli” value is “not soluble”.
As for “MSNRKYFGTDGIRGRVGDAPITPDFVLKLGWAAGKVLARHGSRKIIIGKDTRISGYMLESALEAGLAAAGLSALFTGPMPTPAVAYLTRTFRAEAGIVISASHNPFYDNGIKFFSIDGTKLPDAVEEAIEAEMEKEISCVDSAELGKASRIVDAAGRYIEFCKATFPNELSLSELKIVVDCANGATYHIAPNVLRELGANVIAIGCEPNGVNINAEVGATDVRALQARVLAEKADLGIAFDGDGDRVIMVDHEGNKVDGDQIMYIIAREGLRQGQLRGGAVGTLMSNMGLELALKQLGIPFARAKVGDRYVLEKMQEKGWRIGAENSGHVILLDKTTTGDGIVAGLQVLAAMARNHMSLHDLCSGMKMFPQILVNVRYTAGSGDPLEHESVKAVTAEVEAALGNRGRVLLRKSGTEPLIRVMVEGEDEAQVTEFAHRIADAVKAV”, the “soluble on expression in E. coli” value is on record as “not soluble”.
As for “MSNVYWPLYEVFVRGKQGLSHRHVGSLHAADERMALENARDAYTRRSEGCSIWVVKASEIVASQPEERGEFFDPAESKVYRHPTFYTIPDGIEHM”, the entry is “soluble”; as for “MSNYEKVYIGTYTNGESRGIYSFNIISDSRKTTAPILSCEIENPTYLTFNMNNKTAYSVIKSGNLGGAASFYVDDRNNHLELLNCKFGYENPPERFSGKQPCYVSLDKTNSYLFSVNYHTSRVDVFPIRNDGSIDTVSSFVIHEGFGPNKERQETSHVHCAVTTPLNDFLCVVDLGTDKIVLYRFDDGILCRFNEFKLKPGCGPRHIIFHPNGKIAYIATELSSEVIVLKYSPLDGSFEELQYVSCLPTDYTGKNGSAAIHISRNSNYLYVSNRGHNSISCFHVDNSTGLLTLNSNTSTYGLSPRDFDLSSSGNLLIAANQDSSNLTIFSVDQVSGNLSKITSDIYVPNPVCVKFYHDKLEHHHHHH”, “not soluble”.
Take “MSPEDAITRAELLRRREAGEVTLVDVRPHEEYQAGHIPGAINIPIAELADRLAELAGDRDIVAYCRGAYCVMAPDAVRIARDAGREVKRLDDGMLEWRLAGLPVDEGALEHHHHHH”: the “soluble on expression in E. coli” value is given as “not soluble”.
As to “MSPENPFLNHEKKEQERQAKRDAVLLAAVKIFNEQGFHSTSLDDVAKSLGISKPTIYHYLGNKEQVLLTCVEIGLQQLIEAAKDVEKQSISGFEKLRRFLFLYGCRNLDDFGRCVILTHDDALSKEGLVKFKALKRVVHEALLNIIRDAQLDQSINAEHDPKILAATLTGAINWSAKWYNPNGVLSKEETIQKMVDILTYGFEKK”, the “soluble on expression in E. coli” value is on record as “not soluble”.
